Laboratory results as given in article PMC2597643 (Nature, 2008).
Where “and” joins values, the source holds several entries; their conditions need not be identical. Equal entries are not always repeated.

Tests used:
Orai (in HEK-293 cells) = Orai (in HEK-293 cells) (UniProt Q9U6B8); assay: native gel or EMSA
cross-linking = biological target: the molecule itself; assay: cross-linking
[1] = biological target: the molecule itself; assay: single-molecule photobleaching

Orai (in HEK-293 cells) (from UniProt Q9U6B8 1-351) (natural protein)
stoichiometry N (Orai (in HEK-293 cells)): 2

B1: HA-tagged Orai (natural protein)
chain: MSVWTTANNSGLETPTKSPITSSVPRAARSSAVITTGNHQQHHFQHVVAAAVAAATSVATGHQFQQQFPLHAHPHPQHHSNSPTGSGSNSNNSAGFQRTSISNSLLQFPPPPPPSSQNQAKPRGHHRTASSSMSQSGEDLHSPTYLSWRKLQLSRAKLKASSKTSALLSGFAMVAMVEVQLDHDTNVPPGMLIAFAICTTLLVAVHMLALMISTCILPNIETVCNLHSISLVHESPHERLHWYIETAWAFSTLLGLILFLLEIAILCWVKFYDLSPPAAWSACVVLIPVMIIFMAFAIHFYRSLVSHKYEVTVSGIRELEMLKEQMEQDHLEHHNNIRNNGMNYGASGDIV
stoichiometry N (cross-linking): 2

B2: GFP-Flag-Orai (in Xenopus oocytes) (natural protein)
chain: B1 chain
stoichiometry N [1]: 2 and 4
